Paper PMC1635313

Biological target: T1, CRP (cAMP receptor protein, CAP) (Escherichia coli) (UniProt P0ACJ8)
T1 sequence: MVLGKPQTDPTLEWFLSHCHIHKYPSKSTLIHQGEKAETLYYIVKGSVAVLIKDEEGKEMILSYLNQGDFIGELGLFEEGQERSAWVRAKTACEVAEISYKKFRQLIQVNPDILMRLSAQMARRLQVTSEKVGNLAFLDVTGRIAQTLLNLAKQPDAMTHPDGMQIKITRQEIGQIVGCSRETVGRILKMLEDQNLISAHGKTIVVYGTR
Test: EMSA

For “CCAGGTTTCCCAGCACTTTTAATCTGGCGGTTAATGCGACTCCGGCATCCGGTGAAACATCCGGTAAAGGATGCAATACGCCGTCGATACGCAAGCGGATGCGGTAGGC (double strand) [hofB coding fragment]”, which binding is on record?
The binding was “no binding”.

“GCACGACAGGTTTCCCGACTGGAAAGCGGGCAGTGAGCGCAACGCAATTAATGTGAGTTAGCTCACTCATTAGGCACCCCAGGCTTTACACTTTATGCTTCCGGCTCGTATGTTGTGTGGAATTGTG (double strand) [lacZ promoter fragment]” was tested. Which binding did it give?
The binding was “binds”.
